Test results from publication PMC6335422 (Nature Communications, 2019).
Where no end group is shown, it is not given here.

How the values were obtained:
[1] = target: T1, Erh1 D27A (Schizosaccharomyces pombe, UniProt G2TRN4, D27A); assay: ITC, Mmi1 peptide titrated into Erh1 D27A; assay type: binding, S. pombe
T1 construct: A region of Erh1 (residues 1–104) was amplified by PCR; made in house; host or cells: Escherichia coli BL21 (Gold)
Procedure: (§1) The titration protocol consisted of a single initial injection of 1 µl, followed by 19 injections of 2 µl SUMO-tagged Mmi1 peptides into the sample cell containing Erh1 protein. Thermodynamic data were analyzed with a single-site binding model using MicroCal PEAQ-ITC Analysis Software provided by the manufacturer.

[2] = system: Erh1; assay: GST pull-down of Erh1 with GST-tagged Mmi1 fragments, Coomassie; assay type: binding, S. pombe; conditions: GST-Mmi1 fusion incubated with Erh1, glutathione-agarose, SDS-PAGE
From the text: Fig. 1 Mmi1 interacts with Erh1 in a 2:2 stoichiometry. a Shown is a schematic representation of the domain architecture of Mmi1. The disorder score from DISOPRED3 Server[62] and the conservation score are shown below. The conservation score is generated by a Protein Residue Conservation Prediction Server[63] from the sequence alignment of Mmi1 orthologues from S. pombe, S. cryophilus, S. octosporus, and S. japonicus. b–d Interactions of GST tagged Mmi1 peptides (GST-Mmi1) with Erh1 visualized by Coomassie blue staining. The indicated GST-Mmi1 fusion proteins or GST alone were incubated with Erh1. The complexes were collected with glutathione-agarose resin and bound proteins were eluted and then subjected to SDS-PAGE. GST or GST-Mmi1 fusion proteins without Erh1 are shown as a negative control. Source data are provided as a Source Data file. e The raw ITC titration data of Erh1 with SUMO tagged Mmi1^95–122 and its fitting curve are shown. KD dissociation constant, DP differential power, N binding stoichiometry, ΔH binding enthalpy. f ITC fitting curves of Erh1 using SUMO tagged Mmi1^95–122 (magenta), Mmi1^106–122 (blue) and Mmi1^95–111 (green) are shown. g Size-exclusion analysis of Erh1 (magenta) and Erh1-Mmi1^95–122 (blue). Marker sizes are 62.9 KDa (Albumin), 46.7 KDa (Ovalbumin), 20.3 KDa (Chymotrypsinogen), 14.6 KDa (Ribonuclease A). Also shown are theoretical monomer sizes (kDa) of Erh1 protein and Mmi1^95–122 peptide TEXT PRINTED IN THE PICTURE: (e) Mmi1^95–122 - Erh1: KD (μM) 0.83±0.19; N (sites) 0.90±0.01; ΔH (kJ per mol) −106±3.02 | (f) Mmi1^95–122: Erh1 KD (μM): 0.83±0.19 | (f) Mmi1^106–122: Erh1 KD (μM): 9.94±1.19 | (f) Mmi1^95–111: Erh1 KD (μM): no binding | (g) Erh1: 13.2 kDa | (g) Mmi1^95–122: 3.5 kDa
A region of Erh1 (residues 1–104) was amplified by PCR from the S. pombe genome and cloned into a modified pET28a (Novagen) vector without a thrombin protease cleavage site (p28a). GST-Mmi1^YTH was sub-cloned from a Mmi1^YTH-p28a construct to a modified PGex-4T1 vector with a TEV protease cleavage site (Tev4T1). […]

[3] = target: T2, Erh1 D68A (Schizosaccharomyces pombe, UniProt G2TRN4, D68A); assay: ITC, Mmi1 peptide titrated into Erh1 D68A; assay type: binding, S. pombe
T2 construct: A region of Erh1 (residues 1–104) was amplified by PCR; made in house; host or cells: Escherichia coli BL21 (Gold)
T2 sequence (G2TRN4 whole entry D68A, the tested form may be a part): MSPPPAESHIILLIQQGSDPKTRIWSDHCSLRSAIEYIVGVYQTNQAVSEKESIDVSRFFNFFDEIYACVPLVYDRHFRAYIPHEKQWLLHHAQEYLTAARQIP
Procedure: as §1

[4] = assay type: physicochemical; conditions: pH 7.5
[5] = target: T3, Erh1 R23A (Schizosaccharomyces pombe, UniProt G2TRN4, R23A); assay: ITC, Mmi1 peptide titrated into Erh1 R23A; assay type: binding, S. pombe
T3 construct: A region of Erh1 (residues 1–104) was amplified by PCR; made in house; host or cells: Escherichia coli BL21 (Gold)
T3 sequence (G2TRN4 whole entry R23A, the tested form may be a part): as the sequence (G2TRN4 whole entry D68A, the tested form may be a part) above, with R23A, A68D counted along it
Procedure: as §1

[6] = target: T4, Erh1 (Erh1wt) (Schizosaccharomyces pombe, UniProt G2TRN4); assay: Isothermal titration calorimetry (ITC), SUMO-tagged Mmi1 peptides titrated into wild-type Erh1; assay type: binding, S. pombe; conditions: Erh1wt, ITC, 293 K, 20 mM Tris-HCl pH 7.5, 150 mM NaCl, SUMO-tagged Mmi1 peptide, single-site model
T4 construct: A region of Erh1 (residues 1–104) was amplified by PCR; made in house; host or cells: Escherichia coli BL21 (Gold)
T4 sequence (G2TRN4 1-104): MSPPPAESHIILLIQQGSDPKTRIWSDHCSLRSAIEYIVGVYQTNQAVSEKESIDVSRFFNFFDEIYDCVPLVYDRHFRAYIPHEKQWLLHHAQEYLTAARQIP
Procedure: as §1

[7] = target: T5, Erh1 E85A (Schizosaccharomyces pombe, UniProt G2TRN4, E85A); assay: ITC, Mmi1 peptide titrated into Erh1 E85A; assay type: binding, S. pombe; conditions: 293 K, pH 7.5
T5 construct: A region of Erh1 (residues 1–104) was amplified by PCR; made in house; host or cells: Escherichia coli BL21 (Gold)
T5 sequence (G2TRN4 whole entry E85A, the tested form may be a part): as the sequence (G2TRN4 whole entry D68A, the tested form may be a part) above, with A68D, E85A counted along it
Procedure: as §1

[8] = system: Erh1-Mmi1 interaction; assay: Co-immunoprecipitation of Erh1-GFP and FLAG-Mmi1 from yeast cells; assay type: cell-based, S. pombe; conditions: FLAG-Mmi1 WT replaced with mutant; Erh1-GFP; YEA medium, 32 °C
Procedure: Cells were grown to mid-log phase in rich YEA medium at 32 °C, harvested, and flash-frozen in liquid nitrogen prior to extract preparations. Extracts prepared from yeast cells expressing epitope tagged proteins under the control of native gene promoters were used for immunoprecipitations and Western blot analyses as described. Total protein extracts for western blotting analyses were prepared by trichloroacetic acid (TCA) precipitation. Briefly, cells were lysed using glass beads in 20% TCA buffer. Next, lysates were diluted using 5% TCA buffer and total protein pellets were concentrated by centrifugation at 21,000×g for 5 min. Precipitated protein was dissolved in sodium dodecyl sulfate (SDS) sample buffer prior to resolution in a polyacrylamide gel. For immunoprecipitation experiments, cells were lysed using glass beads in 2X HC lysis buffer (300 mM HEPES buffer pH 7.6, 100 mM KCl, 2 mM EDTA, 0.2% NP-40, and 0.2 mM DTT) containing protease inhibitor cocktail (11697498001, Roche) and 2 mM PMSF. Lysate cleared of cellular debris was incubated with antibody-conjugated beads for immunoprecipitation. […]

T1 sequence (G2TRN4 whole entry D27A, the tested form may be a part): as the sequence (G2TRN4 whole entry D68A, the tested form may be a part) above, with D27A, A68D counted along it

For “Mmi1^95–122: Mmi1 fragment, residues 95–122, Erh1-interacting domain (EID) ({SUMO}-GKYDFSRHCTDYGHSYEWPYFRSLRRES; not fully specified)”, the “binding affinity (in words)” value ([1]; Erh1 Asp27 substituted with alanine) was “significantly reduced the binding affinity”, the “ΔH (binding enthalpy)” value ([1]; Erh1 D27A, 293 K, pH 7.5) was -58.8±1.58 kJ per mol and the “interaction with Erh1 (GST pull-down)” value [2] was “sufficient for interaction”. The “ΔH (binding enthalpy)” value ([3]; Erh1 D68A, 293 K, pH 7.5) was -47.6±1.30 kJ per mol, the “affinity (in words)” value ([3]; Erh1^D68A mutant) was “reduced” and the “solubility of synthesized peptide” value [4] was “could not be dissolved in the interaction buffer”. The “binding affinity (in words)” value ([5]; Erh1 Arg23 substituted with alanine) was “significantly reduced the binding affinity”, the “ΔH (binding enthalpy)” value ([5]; Erh1 R23A, 293 K, pH 7.5) was -24.2±4.87 kJ per mol and the “ΔH (binding enthalpy)” value [6] was −106±3.02 kJ per mol. For the same molecule, the “ΔH (binding enthalpy)” value ([6]; listed as Mmi195-11 2) was -106±3.02 kJ per mol and the “ΔH (binding enthalpy)” value [7] was -81.9±1.70 kJ per mol.

B1: mutant Mmi^W112A protein: full-length Mmi1 carrying W112A, expressed in S. pombe (protein)
chain: MSNTNFSTSRSSKSIPELPNLEALRSLWPPPSLNESGDTRSVWTTHTGEPVASSVLSTSGSNNFSSPLKRPAPESHDAPIGRRLMVDDPRLIKHGKYDFSRHCTDYGHSYEAPYFRSLRRESMLYHTSGSYPESQPPYSSYSTDAPHYYHAGSESSAYYDSRSRLHGIQPPPKRRTLSPPPRRLADPVVVGSSRYVEEEVYRRPPYTLASEVPSSASAYQAGYSSYPVRSSPQLSHEDTRHGIASSGSTRYPFVPANTRASHSPSLLEPYAHSLPSSVAPVGAYPEKSSYLLSNSSNDSASRKEKPKARASTPPPLNFSRASEHRNEKGERISMINPRVVLDENGISHRSRYFIMLCDNETAIAHAKKTSIWAVKKDSSKRISDAYKKASVYFIFVAQQTYNALGYAQVVSDLNSTELPFWSDSSHAGGVRIKWIKTCNLFSAEISEIVSHMDHGSEARDGMEMMYDEGSRLCTLINYAIMKRIGRDR
modifications: left off: FLAG, end not stated, kept
notes: full-length Mmi1 carrying W112A, expressed in S. pombe
In the case of B1, the “Erh1-Mmi1 interaction (co-immunoprecipitation)” value [8] is reported as “drastically diminished the Erh1-Mmi1 interaction”.
